Experimental data taken from patent US20210214461A1.

Tests used:
[1] = molecular target: pre-existing anti-scFv903 antibodies in human serum H116 (human); assay: competition ADA bridging ELISA, 100 mcg/ml competitor
[2] = molecular target: pre-existing anti-scFv903 antibodies in human serum H135 (human); assay: as above
[3] = molecular target: pre-existing anti-scFv903 antibodies in human serum H14 (human); assay: as above
[4] = molecular target: pre-existing anti-scFv903 antibodies in human serum H20 (human); assay: as above
[5] = molecular target: pre-existing anti-scFv903 antibodies in human serum H21 (human); assay: as above
[6] = molecular target: pre-existing anti-scFv903 antibodies in human serum H26 (human); assay: as above
[7] = molecular target: pre-existing anti-scFv903 antibodies in human serum H29 (human); assay: as above
[8] = molecular target: pre-existing anti-scFv903 antibodies in human serum H3 (human); assay: as above
[9] = molecular target: pre-existing anti-scFv903 antibodies in human serum H40 (human); assay: as above
[10] = molecular target: pre-existing anti-scFv903 antibodies in human serum H46 (human); assay: as above
[11] = molecular target: pre-existing anti-scFv903 antibodies in human serum H49 (human); assay: as above
[12] = molecular target: pre-existing anti-scFv903 antibodies in human serum H50 (human); assay: as above
[13] = molecular target: pre-existing anti-scFv903 antibodies in human serum H53 (human); assay: as above
[14] = molecular target: pre-existing anti-scFv903 antibodies in human serum H55 (human); assay: as above
[15] = molecular target: pre-existing anti-scFv903 antibodies in human serum H60 (human); assay: as above
[16] = molecular target: pre-existing anti-scFv903 antibodies in human serum H63 (human); assay: as above
[17] = molecular target: pre-existing anti-scFv903 antibodies in human serum H69 (human); assay: as above
[18] = molecular target: pre-existing anti-scFv903 antibodies in human serum H8 (human); assay: as above
[19] = molecular target: pre-existing anti-scFv903 antibodies in human serum H80 (human); assay: as above
[20] = molecular target: pre-existing anti-scFv903 antibodies in human serum H81 (human); assay: as above
[21] = molecular target: pre-existing anti-scFv903 antibodies in human serum H96 (human); assay: as above
[22] = molecular target: pre-existing anti-scFv903 antibodies in human serum H86 (human); assay: as above
[23] = molecular target: rabbit polyclonal Anti-scFv 903 IgG termed AB903-3 (rabbit); assay: confirmatory ADA bridging ELISA, pre-incubation with 10, 100 or 1 mcg/ml scFv 903

Binder | % reduction in OD [1] | % reduction in OD [2] | % reduction in OD [4] | % reduction in OD [5] | % reduction in OD [6] | % reduction in OD [7] | % reduction in OD [8] | % reduction in OD [9] | % reduction in OD [10] | % reduction in OD [11] | % reduction in OD [12] | % reduction in OD [13] | % reduction in OD [14] | % reduction in OD [15] | % reduction in OD [16] | % reduction in OD [17] | % reduction in OD [18] | % reduction in OD [19] | % reduction in OD [20] | % reduction in OD [21] | other results
scFv105 (scFv) scFv: DIVMTQSPSSLSASVGDRVTLTCTASQSVSNDVVWYQQRPGKAPKLLIYSAFNRYTGVPSRFSGRGYGTDFTLTISSLQPEDVAVYYCQQDYNSPRTFGQGTKLEVKRGGGGSGGGGSGGGGSSGGGSQVQLVQSGAEVKKPGASVKVSCTASGYTFTHYGMNWVRQAPGKGLEWMGWINTYTGEPTYADKFKDRFTFSLETSASTVYMELTSLTSDDTAVYYCARERGDAMDYWGQGTLVTVSS | -43.4% | -23.1% | -18.8% | -3.4% | -79.9% | -51.4% | -58.8% | 3.5% | -66.7% | -26.1% | -31.1% | -18.4% | -71.9% | -10.8% | -80.5% | -87.6% | -23.1% | -50.9% | -18.1% | -29% | % reduction in OD [3]: -3.6%
scFv 903 (scFv) scFv: EIVMTQSPSTLSASVGDRVIITCQASEIIHSWLAWYQQKPGKAPKLLIYLASTLASGVPSRFSGSGSGAEFTLTISSLQPDDFATYYCQNVYLASTNGANFGQGTKLTVLGGGGGSGGGGSGGGGSGGGGSEVQLVESGGGLVQPGGSLRLSCTASGFSLTDYYYMTWVRQAPGKGLEWVGFIDPDDDPYYATWAKGRFTISRDTSKNTVYLQMNSLRAEDTAVYYCAGGDHNSGWGLDIWGQGTLVTVSS | -97.8% | -92.5% |  |  |  |  | -79.9% |  |  |  |  |  |  |  |  |  | -87.3% | -87% | -94.7% | -80.3% | % change in OD signal [3]: -96.6%; signal change in competition ELISA [4]: -91.9%; % signal change in competition ELISA [5]: -85.4%; % change in OD (signal change) [6]: -92%; % change in OD signal [7]: -79.4%; % signal change in OD (negative = reduction) [9]: -95.4%; % change in OD signal [10]: -79.8%; % change in OD in competition ELISA [11]: -82.7%; signal change in competition ELISA (% change in OD) [12]: -88.7%; signal change in competition ELISA (%) [13]: -32.4%; % signal change in OD (negative = reduction) [14]: -89.4%; signal change in competition ELISA [15]: -95.6%; % change in OD (signal change in competition ELISA) [16]: -96.8%; signal change in competition ELISA (% change in OD) [17]: -92.2%; % reduction in OD [22]: -86.2%; OD change upon pre-incubation [23]: 60 to 95%
scFv 791 (scFv) scFv: MEIVMTQSPSTLSASLGDRVIITCQSSQSVYGNIWMAWYQQKSGKAPKLLIYQASKLASGVPSRFSGSGSGAEFSLTISSLQPDDFATYYCQGNFNTGDRYAFGQGTKLTVLGGGGGSGGGGSGGGGSGGGGSEVQLVESGGGLVQPGGSLRLSCTASGFTISRSYWICWVRQAPGKGLEWVACIYGDNDITPLYANWAKGRFPVSTDTSKNTVYLQMNSLRAEDTAVYYCARLGYADYAYDLWGQGTLVTVSS | -97.2% | -95.2% | -96.1% | -85.3% | -96.8% | -78.7% | -85% | -94.6% | -77.1% | -81.2% | -88.5% | -34.6% | -96% | -94.8% | -19.7% | -74.7% | -90.7% | -85.3% | -94.4% | -78.5% | % reduction in OD [3]: -96.5%; % reduction in OD [22]: -86.7%
scFv 961 (scFv) scFv: EIVMTQSPSTLSASVGDRVIITCQASEIIHSWLAWYQQKPGKAPKLLIYLASTLASGVPSRFSGSGSGAEFTLTISSLQPDDFATYYCQNVYLASTNGANFGQGTKLTVLGGGGGSGGGGSGGGGSGGGGSEVQLVESGGGSVQPGGSLRLSCTASGFSLTDYYYMTWVRQAPGKGLEWVGFIDPDDDPYYATWAKGRFTISRDTSKNTVYLQMNSLRAEDTATYYCAGGDHNSGWGLDIWGQGTTVTVSS | -33.2% | -74.7% | -23.5% | -80.5% | 0.1% | -21.9% | -1.7% | -1.7% | -40.1% | -8.8% | -72.8% | -30.9% | -14.7% | -1.2% | -35.9% | -6.2% | -88.6% | -55.1% | -8.8% | -78% | % reduction in OD [22]: -67.9%
